Numbering of substitutions follows the chain as printed.
T1: human glucose-dependent insulinotropic polypeptide (GIP) receptor (human, UniProt P48546 22-466)
T1 sequence (looked up): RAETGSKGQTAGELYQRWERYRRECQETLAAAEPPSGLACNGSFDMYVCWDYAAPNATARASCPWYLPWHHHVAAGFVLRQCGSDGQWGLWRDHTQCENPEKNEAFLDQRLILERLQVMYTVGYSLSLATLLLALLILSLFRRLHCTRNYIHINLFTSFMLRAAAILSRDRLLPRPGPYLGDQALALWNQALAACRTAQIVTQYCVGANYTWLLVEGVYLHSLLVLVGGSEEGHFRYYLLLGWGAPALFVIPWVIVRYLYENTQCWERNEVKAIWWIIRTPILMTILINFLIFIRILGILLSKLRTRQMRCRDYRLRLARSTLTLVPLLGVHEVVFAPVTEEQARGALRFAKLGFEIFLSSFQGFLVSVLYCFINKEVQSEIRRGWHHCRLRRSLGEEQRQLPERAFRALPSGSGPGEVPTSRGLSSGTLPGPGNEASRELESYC

T2: human GIP receptor (human, UniProt P48546 22-466)
T2 sequence (looked up): T1 sequence (looked up)

B1: Example 200 (peptide)
peptide: YXEGTXTSDYXIXLDXKAQXEFIXXLIEGGKSSGAPPPS
modifications: Aib2, αMeF(2F)6, Dap11, αMeL13, Orn16, K17(Z), Aib20, D-Glu24, αMeY25, K31(Z), C-terminal NH2; Z = AEEA2-(γ-Glu)-CO-(CH2)12-CO2H
B2: Example 208 (peptide)
peptide: B1 peptide with Y10X, X11S, E28K, K31P
modifications: Aib2, αMeF(2F)6, 4Pal10, αMeL13, Orn16, K17(Z), Aib20, D-Glu24, αMeY25, K28(Z), C-terminal NH2; Z = AEEA-(γ-Glu)-(4-(4-tert-butylphenyl)butanoyl)
B3: Y-Aib-EGT-αMeF(2F)-TSD-4Pal-SI-αMeL-LD-Orn-IAQ-Aib-EFI-(D-Glu)-αMeY-LIK((2-[2-(2-Amino-ethoxy)-ethoxy]-acetyl)2-(γ-Glu)-CO-(CH2)12-CO2H)GGK((2-[2-(2-Amino-ethox … (peptide)
peptide: B1 peptide with Y10X, X11S, K17I, E28K
modifications: Aib2, αMeF(2F)6, 4Pal10, αMeL13, Orn16, Aib20, D-Glu24, αMeY25; acylated K28, K31 (groups as in name); C-terminal amide
B4: Y-Aib-EGT-αMeF(2F)-TSD-4Pal-SI-αMeL-LD-Orn-IAQ-Aib-EFI-(D-Glu)-αMeY-LIK((2-[2-(2-Amino-ethoxy)-ethoxy]-acetyl)2-(γ-Glu)-CO-(CH2)14-CH3)GGK((2-[2-(2-Amino-ethoxy … (peptide)
peptide: B1 peptide with Y10X, X11S, K17I, E28K
modifications: Aib2, αMeF(2F)6, 4Pal10, αMeL13, Orn16, Aib20, D-Glu24, αMeY25; acylated K28, K31 (groups as in name); C-terminal amide
B5: Y-Aib-EGT-αMeF(2F)-TSD-4Pal-SI-αMeL-LD-Orn-IAQ-Aib-EFIK((2-[2-(2-Amino-ethoxy)-ethoxy]-acetyl)2-(γ-Glu)-CO-(CH2)12-CO2H)-αMeY-LIK((2-[2-(2-Amino-ethoxy)-ethoxy] … (peptide)
peptide: YXEGTXTSDXSIXLDXIAQXEFIKXLIKGGPSSGAPPPS
modifications: Aib2, αMeF(2F)6, 4Pal10, αMeL13, Orn16, Aib20, αMeY25; acylated K24, K28 (groups as in name); C-terminal amide
B6: Y-Aib-EGT-αMeF(2F)-TSD-4Pal-SI-αMeL-LD-Orn-IAQ-Aib-EFIK((2-[2-(2-Amino-ethoxy)-ethoxy]-acetyl)2-(γ-Glu)-(4-(4-tert-butylphenyl)butanoyl))-αMeY-LIK((2-[2-(2-Amin … (peptide)
peptide: B5 peptide
modifications: Aib2, αMeF(2F)6, 4Pal10, αMeL13, Orn16, Aib20, αMeY25; acylated K24, K28 (groups as in name); C-terminal amide
B7: Y-Aib-EGT-αMeF(2F)-TSD-1Nal-SI-αMeL-LD-Orn-K((2-[2-(2-Amino-ethoxy)-ethoxy]-acetyl)2-(γ-Glu)-CO-(CH2)12-CO2H)AQ-Aib-EFI-(D-Glu)-αMeY-LIEGGK((2-[2-(2-Amino-ethox … (peptide)
peptide: B1 peptide with Y10X, X11S
modifications: Aib2, αMeF(2F)6, 1Nal10, αMeL13, Orn16, Aib20, D-Glu24, αMeY25; acylated K17, K31 (groups as in name); C-terminal amide
B8: Y-Aib-EGT-αMeF(2F)-TSD-4Pal-SI-αMeL-LD-Orn-IAQ-Aib-EFIK((2-[2-(2-Amino-ethoxy)-ethoxy]-acetyl)2-CO-(CH2)12-CO2H)-αMeY-LIK((2-[2-(2-Amino-ethoxy)-ethoxy]-acetyl) … (peptide)
peptide: B5 peptide
modifications: Aib2, αMeF(2F)6, 4Pal10, αMeL13, Orn16, Aib20, αMeY25; acylated K24, K28 (groups as in name); C-terminal amide
B9: Y-Aib-EGT-αMeF-TSD-4Pal-SI-αMeL-LD-Orn-K((2-[2-(2-Amino-ethoxy)-ethoxy]-acetyl)2-(γ-Glu)-CO-(CH2)12-CO2H)AQ-Aib-E-αMeF-I-(D-Glu)-αMeY-LIEGGK((2-[2-(2-Amino-etho … (peptide)
peptide: B1 peptide with Y10X, X11S, F22X
modifications: Aib2, αMeF6, 4Pal10, αMeL13, Orn16, Aib20, αMeF22, D-Glu24, αMeY25; acylated K17, K31 (groups as in name); C-terminal amide
B10: Y-Aib-EGT-αMeF(2F)-TSD-4Pal-SI-αMeL-LD-Orn-IAQ-Aib-K((2-[2-(2-Amino-ethoxy)-ethoxy]-acetyl)2-(γ-Glu)-CO-(CH2)12-CO2H)FI-(D-Glu)-αMeY-LIEGGK((2-[2-(2-Amino-ethox … (peptide)
peptide: B5 peptide with E21K, K24X, K28E, P31K
modifications: Aib2, αMeF(2F)6, 4Pal10, αMeL13, Orn16, Aib20, D-Glu24, αMeY25; acylated K21, K31 (groups as in name); C-terminal amide
B11: Y-Aib-EGT-αMeF(2F)-TSD-4Pal-SI-αMeL-LD-Orn-IAQ-Aib-EFIK((εK)-(εK)-(γ-Glu)-CO-(CH2)12-CO2H)-αMeY-LIEGGK((εK)-(εK)-(γ-Glu)-CO-(CH2)12-CO2H)SSGAPPPS-NH2 (peptide)
peptide: B5 peptide with K28E, P31K
modifications: Aib2, αMeF(2F)6, 4Pal10, αMeL13, Orn16, Aib20, αMeY25; acylated K24, K31 (groups as in name); C-terminal amide
B12: Y-Aib-EGT-αMeF(2F)-TSD-4Pal-SI-αMeL-LD-Orn-IAQ-Aib-EFIK((2-[2-(2-Amino-ethoxy)-ethoxy]-acetyl)2-CO-(CH2)12-CO2H)-αMeY-LIEGGK((2-[2-(2-Amino-ethoxy)-ethoxy]-acet … (peptide)
peptide: B5 peptide with K28E, P31K
modifications: Aib2, αMeF(2F)6, 4Pal10, αMeL13, Orn16, Aib20, αMeY25; acylated K24, K31 (groups as in name); C-terminal amide
B13: Y-Aib-EGT-αMeF(2F)-TSD-4Pal-SI-αMeL-LD-Orn-IAQ-Aib-EFIK((2-[2-(2-Amino-ethoxy)-ethoxy]-acetyl)2-(γ-Glu)-CO-(CH2)12-CO2H)-αMeY-LIEGGK((2-[2-(2-Amino-ethoxy)-etho … (peptide)
peptide: B5 peptide with K28E, P31K
modifications: Aib2, αMeF(2F)6, 4Pal10, αMeL13, Orn16, Aib20, αMeY25; acylated K24, K31 (groups as in name); C-terminal amide
B14: Y-Aib-EGT-αMeF(2F)-TSD-4Pal-SI-αMeL-LD-Orn-IAQ-Aib-K((2-[2-(2-Amino-ethoxy)-ethoxy]-acetyl)2-CO-(CH2)12-CO2H)FI-(D-Glu)-αMeY-LIEGGK((2-[2-(2-Amino-ethoxy)-ethox … (peptide)
peptide: B5 peptide with E21K, K24X, K28E, P31K
modifications: Aib2, αMeF(2F)6, 4Pal10, αMeL13, Orn16, Aib20, D-Glu24, αMeY25; acylated K21, K31 (groups as in name); C-terminal amide
B15: Y-Aib-EGT-αMeF(2F)-TSD-4Pal-SI-αMeL-LD-Orn-IAQ-Aib-EFIK((εK)-(γ-Glu)-CO-(CH2)12-CO2H)-αMeY-LIEGGK((εK)-(γ-Glu)-CO-(CH2)12-CO2H)SSGAPPPS-NH2 (peptide)
peptide: B5 peptide with K28E, P31K
modifications: Aib2, αMeF(2F)6, 4Pal10, αMeL13, Orn16, Aib20, αMeY25; acylated K24, K31 (groups as in name); C-terminal amide
B16: Y-Aib-EGT-αMeF-TSD-4Pal-SI-αMeL-LD-Orn-K((2-[2-(2-Amino-ethoxy)-ethoxy]-acetyl)2-(γ-Glu)-CO-(CH2)10-CH3)AQ-Aib-E-αMeF-I-(D-Glu)-αMeY-LIEGGK((2-[2-(2-Amino-ethox … (peptide)
peptide: B1 peptide with Y10X, X11S, F22X
modifications: Aib2, αMeF6, 4Pal10, αMeL13, Orn16, Aib20, αMeF22, D-Glu24, αMeY25; acylated K17, K31 (groups as in name); C-terminal amide

The binders below were run against T1, human glucose-dependent insulinotropic … (assay: cell-based or functional assay).

For B1, which “cAMP EC50” value is on record?
The value was 0.0503 nM.

What about the “cAMP Emax” value of the same binder?
Its value is 96.3%.

Which “cAMP EC50” value does the source give for B2 here?
Its value is 0.018 nM.

These binders were tested against human glucagon-like peptide-1 (GLP-1) receptor (human, UniProt P43220 24-463) (assay: cell-based or functional assay).

With B1 as the binder, how does the “cAMP EC50” value read?
Its value is 0.834 nM.

What about the “cAMP Emax” value of the same binder?
Its value is 93.7%.

For B2, which “cAMP EC50” value is on record?
Its value is 0.238 nM.

Each binder was assayed against human glucagon receptor (human, UniProt P47871 26-477) (assay: cell-based or functional assay).

For B1, which “cAMP EC50” value is on record?
The value was over 9950 nM.

Which “cAMP EC50” value does the source give for B2 here?
The value was over 9950 nM.

Each binder was assayed against T2, human GIP receptor (assay: cell-based or functional assay).

With B3 as the binder, how does the “cAMP EC50 (1.0% HSA)” value read?
Its value is 1.66 nM.

How did the “cAMP EC50 (1.0% HSA)” value turn out when B4 was run?
Its value is 1.2 nM.

B5 was tested. Which “cAMP EC50 (1.0% HSA)” value did it give?
The value was 1.73 nM.

B6 was tested. Which “cAMP EC50 (1.0% HSA)” value did it give?
Its value is 0.682 nM.

B7 was tested. Which “cAMP EC50 (1.0% HSA)” value did it give?
The value was 6.75 nM.

How did the “cAMP EC50 (1.0% HSA)” value turn out when B8 was run?
Its value is 0.832 nM.

How did the “cAMP EC50 (1.0% HSA)” value turn out when B9 was run?
Its value is 0.777 nM.

For B10, which “cAMP EC50 (1.0% HSA)” value is on record?
Its value is 2.19 nM.

For B11, which “cAMP EC50 (1.0% HSA)” value is on record?
The value was 1.06 nM.

How did the “cAMP EC50 (1.0% HSA)” value turn out when B12 was run?
Its value is 1.47 nM.

Which “cAMP EC50 (1.0% HSA)” value does the source give for B13 here?
The value was 3.07 nM.

With B14 as the binder, how does the “cAMP EC50 (1.0% HSA)” value read?
The value was 0.771 nM.

Which “cAMP EC50 (1.0% HSA)” value does the source give for B15 here?
The value was 2.06 nM.

How did the “cAMP EC50 (1.0% HSA)” value turn out when B16 was run?
Its value is 1.24 nM.

Molecular target: human glucagon receptor (human, UniProt P47871 26-477)
Experiment: cell-based or functional assay
Remark: another data set of the same source

Which “cAMP EC50 (1.0% HSA)” value does the source give for B3 here?
The value was over 9950 nM.

For B4, which “cAMP EC50 (1.0% HSA)” value is on record?
Its value is over 9950 nM.

Which “cAMP EC50 (1.0% HSA)” value does the source give for B5 here?
Its value is over 9950 nM.

B6 was tested. Which “cAMP EC50 (1.0% HSA)” value did it give?
The value was over 9950 nM.

For B7, which “cAMP EC50 (1.0% HSA)” value is on record?
Its value is over 9950 nM.

For B8, which “cAMP EC50 (1.0% HSA)” value is on record?
The value was over 9950 nM.

With B9 as the binder, how does the “cAMP EC50 (1.0% HSA)” value read?
The value was over 9950 nM.

Which “cAMP EC50 (1.0% HSA)” value does the source give for B10 here?
Its value is over 9950 nM.

For B11, which “cAMP EC50 (1.0% HSA)” value is on record?
The value was over 9950 nM.

How did the “cAMP EC50 (1.0% HSA)” value turn out when B12 was run?
Its value is over 9950 nM.

How did the “cAMP EC50 (1.0% HSA)” value turn out when B13 was run?
The value was over 9950 nM.

Which “cAMP EC50 (1.0% HSA)” value does the source give for B14 here?
Its value is over 9950 nM.

Which “cAMP EC50 (1.0% HSA)” value does the source give for B15 here?
The value was over 9950 nM.

How did the “cAMP EC50 (1.0% HSA)” value turn out when B16 was run?
Its value is over 9950 nM.

Source: US20230265151A1, “GIP/GLP1 CO-AGONIST COMPOUNDS” (priority 2020, published 2023)
